Paper PMC6510601

Target: hepatitis B virus (HBV) truncated core protein Cp149 dimer (hepatitis B virus)
Assay: resistive-pulse sensing

hepatitis B virus (HBV) truncated core protein Cp149 dimer (domain or fragment)
stoichiometry N: 90 dimers
